Test results reported in patent US20130183315A1 (GLENMARK PHARMACEUTICALS S A, published 2013).
Positions count from the first letter of the chain named.

Key:
[1] = biological target: T1, recombinant human OX40-his protein (human, UniProt P43489 29-214); experiment: SPR, antibody captured on protein A, OX40-his as analyte
T1 construct: Secretion driven by the native signal peptide of human TNFRSF4; also called recombinant histidine tagged human OX40 receptor extracellular domain; recombinant monovalent human OX40 receptor extracellular domain
T1 sequence: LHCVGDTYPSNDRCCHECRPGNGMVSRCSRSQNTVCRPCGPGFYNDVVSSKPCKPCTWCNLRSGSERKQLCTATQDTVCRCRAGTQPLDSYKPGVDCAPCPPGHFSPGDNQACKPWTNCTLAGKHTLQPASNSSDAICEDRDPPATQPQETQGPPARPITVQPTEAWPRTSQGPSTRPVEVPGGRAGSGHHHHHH
Experimental: (§1) Kinetic binding affinity constants (KD) were measured on protein-A captured antibody using recombinant histidine tagged human OX40 receptor extracellular domain as described in Example 1 as analyte. Measurements were conducted on a BIAcore 2000 (GE Healthcare—BIAcore, Uppsala, Sweden) at room temperature, and analyzed with the BiaEvaluation software (BIAcore; v4.1).
(§2) A CMS research grade sensor chip (GE Healthcare Europe GmbH, Glattbrugg, Switzerland; BR-1000-14) was activated by injecting 35 μl of a 1:1 N-hydroxysulfosuccinimide (NHS)/1-Ethyl-3-[3-dimethylaminopropyl]carbodiimide Hydrochloride (EDC) solution (v/v; 5 μl/min flow-rate; on flow paths 1 and 2). Protein-A (ref. P7837; Sigma-Aldrich Chemie GmbH, Buchs, Switzerland) was diluted to a final concentration of 50 μg/ml in acetate buffer pH 4.5 (GE, BR-1003-50; one pH unit below pI) and subsequently immobilized on the previously activated CMS sensor chip by injecting 35 μl on both flow path 1 and 2 (5 μl/min); this corresponded to approximately 1500 response units (RUs). The protein-A-CMS sensor chip was then deactivated by injecting 35 μl of ethanolamine solution (5 μl/min). Finally, two injections of 10 μl of glycine solution (GE, ref BR-1003-54; 10 mM; pH 1.5) were performed to release non-crosslinked protein-A molecules.
(§3) 10 μl of this diluted stock were subsequently injected on the flow-path 2 of the protein-A CMS chip (30 μl/min) to reach 200-250 RUs. Following this capture step, the recombinant histidine tagged human OX40 receptor extracellular domain was injected at different concentrations (50 nM to 0.4 μM) on the flow-path 1 and 2 (flow-path 1 being used as reference) at a 30 μl/min flow rate. After each binding event, surface was regenerated with glycine buffer pH 1.5 injected for 1 min (10 μl/min)

[2] = biological target: T1, recombinant human OX40-his protein; experiment: SPR (BIAcore): antibody captured on protein A chip, human OX40-his as analyte; traces aligned at 0 s, falling phase only
Experimental: as §1
as §2, with “molecules. […]” for “molecules.”

[3] = biological target: T2, human OX40 expressed on the surface of human activated lymphocytes (human, UniProt P43489 29-277); experiment: cell-based or functional assay
T2 sequence: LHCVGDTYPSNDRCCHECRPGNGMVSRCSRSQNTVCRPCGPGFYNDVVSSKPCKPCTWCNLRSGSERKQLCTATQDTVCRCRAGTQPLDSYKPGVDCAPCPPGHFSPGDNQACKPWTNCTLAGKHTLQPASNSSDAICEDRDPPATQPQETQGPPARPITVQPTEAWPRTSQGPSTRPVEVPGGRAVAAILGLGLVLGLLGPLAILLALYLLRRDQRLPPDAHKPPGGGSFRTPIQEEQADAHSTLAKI

[4] = biological target: T3, rat OX40 extracellular region Fc fusion protein (rat; human, UniProt P15725 20-210); experiment: ELISA on coated OX40 Fc fusion (2 µg/mL), anti-human F(ab')2-HRP detection
T3 construct: also called RRRR; rat OX40 protein
Experimental: (§4) Rat and human-rat OX40 proteins were formatted as Fc fusions proteins according to the method described in Example 1. For the ELISA, OX40 proteins were coated at 2 μg/mL, in PBS, overnight at 4° C. on high binding 96-well plates (Coastar). The plates were blocked with PBS 2% Bovine Serum Albumin (BSA) before incubation with the VH6/VL9 antibody or isotype control antibody. The plates were then washed and incubated with goat-anti human Ig F(ab′)2 fragment specific-HRP (Jackson ImmunoResearch Europe Ltd, Newmarket, UK). After washing, the plates were incubated with TMB substrate (Bio-Rad Laboratories AG, Reinach, Switzerland) to reveal antibody binding. The reaction was stopped by adding 2M H₂SO₄ and the optical density was read at 450 nm (OD 450 nm) on a Synergy HT2 spectrophotometer (Biotek, USA; distributor: WITTEC AG, Littau, Switzerland).
(§5) A binding ELISA was performed to test the reactivity of the VH6/VL9 antibody on human OX40 extracellular region (abbreviated HHHH with SEQ ID NO: 11), rat OX40 extracellular region (abbreviated RRRR with SEQ ID NO: 52), and on four human-rat chimeric proteins: RHRR (SEQ ID NO: 53), HRRR (SEQ ID NO: 54), HHRR (SEQ ID NO: 55), and RRHH (SEQ ID NO: 56).

[5] = biological target: T4, chimeric RRHH OX40 protein (Fc fusion) (human-rat chimera; human); experiment: as above
T4 chain (part 1 of 2): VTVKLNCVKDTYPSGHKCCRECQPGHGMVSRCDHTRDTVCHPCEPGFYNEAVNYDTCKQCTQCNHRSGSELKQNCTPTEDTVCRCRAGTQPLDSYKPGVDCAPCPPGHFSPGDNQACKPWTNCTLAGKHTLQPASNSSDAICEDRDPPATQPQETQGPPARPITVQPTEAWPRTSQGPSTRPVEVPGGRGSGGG
T4 chain (part 2 of 2): SAHHHHHH
Experimental: as §4, §5

[6] = biological target: T1, recombinant human OX40-his protein; experiment: SPR (BIAcore): antibody captured on protein A chip, human OX40-his as analyte; analyte concentration not given
Experimental: as §1, §2, §3

[7] = biological target: T1, recombinant human OX40-his protein; experiment: SPR (BIAcore): antibody captured on protein A chip, human OX40-his as analyte
Experimental: as §1, §2, §3

B1: VH7/VL9 (antibody, human IgG1, kappa, V domains shown)
VH: QVTLKESGPALVKPTQTLTLTCSFSGFSLSTSGMGVGWIRQPPGKALEWLAHIWWDDDKYYNTALKTRLTISKDTSKNQVVLTMTNMDPVDTATYYCARIDWDGFAYWGQGTLVTVSS
VL: EIVLTQSPATLSLSPGERATLSCRASSSVSYMHWYQQKPGQAPRPWIYATSNRATGIPARFSGSGSGTDYTLTISSLEPEDFAVYYCQQWSSNPWTFGQGTKVEIKR
notes: Humanized, IGHG1, kappa; also called humanized variant VH7/VL9
[1]
  Kd: 0.07 µM
  koff: 0.00312 s⁻¹
  kon: 44500 M⁻¹ s⁻¹

B2: VH4/VL9 (antibody, human IgG1, kappa, V domains shown)
VH: B1 VH with G37S, L50I, N62S, A64S
VL: B1 VL
notes: Humanized, IGHG1, kappa
[2]
  binding result: binds

B3: VH5/VL9 (antibody, human IgG1, kappa, V domains shown)
VH: B1 VH with G37S, L50I
VL: B1 VL
notes: Humanized, IGHG1, kappa
[2]
  binding result: binds

B4: VH6/VL9 antibody (antibody, human IgG1, kappa, V domains shown)
VH: B1 VH with L50I
VL: B1 VL
notes: Humanized, IGHG1, kappa; also called humanized anti-OX40 antibody VH6/VL9; VH6/VL9 IGHG1 format
[3]
  inhibition of mixed lymphocyte reaction (3H thymidine incorporation), EC50: ~0.1 mg/L
[1]
  Kd: 0.101 µM
  koff: 0.00356 s⁻¹
  kon: 35400 M⁻¹ s⁻¹
[4]
  binding result: no binding (tested: not printed)
[5]
  binding result: no binding (tested: not printed)

B5: VH7/VL7 (antibody, human IgG1, kappa, V domains shown)
VH: B1 VH
VL: B1 VL with H33A, P45L, W46L
notes: Humanized, IGHG1, kappa
[6]
  binding result: binds

B6: VH7/VL8 (antibody, human IgG1, kappa, V domains shown)
VH: B1 VH
VL: B1 VL with P45L, W46L
notes: Humanized, IGHG1, kappa
[6]
  binding result: binds

B7: VH7/VL11 (antibody, human IgG1, kappa, V domains shown)
VH: B1 VH
VL: B1 VL with P45L, W46L, R53L, T55S
notes: Humanized, IGHG1, kappa
[6]
  binding result: binds

B8: VH4/VL4 (antibody, human IgG1, kappa, V domains shown)
VH: B1 VH with G37S, L50I, N62S, A64S
VL: EIVLTQSPATLSLSPGERATLSCRASSSVSYYMAWYQQKPGQAPRLLIYATSNRATGIPARFSGSGSGTDYTLTISSLEPEDFAVYYCQQWSSNPWTFGQGTKVEIKR
notes: Humanized, IGHG1, kappa
[6]
  binding result: binds

B9: VH1/VL1 antibody (antibody, human IgG1, kappa, V domains shown)
VH: B1 VH with S23T, G37S, L50I, H52R, N62S, A64S
VL: B8 VL with M33L, Y71F
notes: Humanized, IGHG1, kappa; also called first humanized antibody
[7]
  binding result: no binding (tested: not printed)

B10: VH1/VL2 (antibody, human IgG1, kappa, V domains shown)
VH: B1 VH with S23T, G37S, L50I, H52R, N62S, A64S
VL: B8 VL with Y71F
notes: Humanized, IGHG1, kappa
[7]
  binding result: no binding (tested: not printed)

B11: VH1/VL3 (antibody, human IgG1, kappa, V domains shown)
VH: B1 VH with S23T, G37S, L50I, H52R, N62S, A64S
VL: B8 VL with M33L
notes: Humanized, IGHG1, kappa
[7]
  binding result: no binding (tested: not printed)

B12: VH2/VL1 (antibody, human IgG1, kappa, V domains shown)
VH: B1 VH with G37S, L50I, H52R, N62S, A64S
VL: B8 VL with M33L, Y71F
notes: Humanized, IGHG1, kappa
[7]
  binding result: no binding (tested: not printed)

B13: VH2/VL2 (antibody, human IgG1, kappa, V domains shown)
VH: B1 VH with G37S, L50I, H52R, N62S, A64S
VL: B8 VL with Y71F
notes: Humanized, IGHG1, kappa
[7]
  binding result: no binding (tested: not printed)

B14: VH2/VL3 (antibody, human IgG1, kappa, V domains shown)
VH: B1 VH with G37S, L50I, H52R, N62S, A64S
VL: B8 VL with M33L
notes: Humanized, IGHG1, kappa
[7]
  binding result: no binding (tested: not printed)

B15: VH3/VL1 (antibody, human IgG1, kappa, V domains shown)
VH: B1 VH with S23T, G37S, L50I, N62S, A64S
VL: B8 VL with M33L, Y71F
notes: Humanized, IGHG1, kappa
[7]
  binding result: no binding (tested: not printed)

B16: VH3/VL2 (antibody, human IgG1, kappa, V domains shown)
VH: B1 VH with S23T, G37S, L50I, N62S, A64S
VL: B8 VL with Y71F
notes: Humanized, IGHG1, kappa
[7]
  binding result: no binding (tested: not printed)

B17: VH3/VL3 (antibody, human IgG1, kappa, V domains shown)
VH: B1 VH with S23T, G37S, L50I, N62S, A64S
VL: B8 VL with M33L
notes: Humanized, IGHG1, kappa
[7]
  binding result: no binding (tested: not printed)

B18: VH5/VL4 (antibody, human IgG1, kappa, V domains shown)
VH: B1 VH with G37S, L50I
VL: B8 VL
notes: Humanized, IGHG1, kappa
[6]
  binding result: binds

B19: VH5/VL5 (antibody, human IgG1, kappa)
heavy: not shown
light: EIVLTQSPATLSLSPGERATLSCRASSSVSYYMAWYQQKPGQAPRPWIYATSNRATGIPARFSGSGSGTDYTLTISSLEPEDFAVYYCQQWSSNPWTFGQGTKVEIKRTVAAPSVFIFPPSDEQLKSGTASVVCLLNNFYPREAKVQWKVDNALQSGNSQESVTEQDSKDSTYSLSSTLTLSKADYEKHKVYACEVTHQGLSSPVTKSFNRGEC
notes: Humanized, IGHG1, kappa
[6]
  binding result: binds

B20: VH5/VL6 (antibody, human IgG1, kappa)
heavy: not shown
light: B19 light with E1Q
notes: Humanized, IGHG1, kappa
[6]
  binding result: binds
